Patent publication US20220315554A1, “COMPOUNDS COMPRISING A […] LIGAND AND USE THEREOF” (priority 2019, published 2022)

Legend:
[1] = molecular target: human fibroblast activation protein (FAP) on FAP-expressing human WI-38 fibroblasts (human); experiment: competition FACS, WI-38 cells, vs Cy5-labeled compound; D: pIC50 ≤6.0
[2] = molecular target: T1, Recombinant human FAP (R&D systems, #3715-SE) (human)
T1 sequence: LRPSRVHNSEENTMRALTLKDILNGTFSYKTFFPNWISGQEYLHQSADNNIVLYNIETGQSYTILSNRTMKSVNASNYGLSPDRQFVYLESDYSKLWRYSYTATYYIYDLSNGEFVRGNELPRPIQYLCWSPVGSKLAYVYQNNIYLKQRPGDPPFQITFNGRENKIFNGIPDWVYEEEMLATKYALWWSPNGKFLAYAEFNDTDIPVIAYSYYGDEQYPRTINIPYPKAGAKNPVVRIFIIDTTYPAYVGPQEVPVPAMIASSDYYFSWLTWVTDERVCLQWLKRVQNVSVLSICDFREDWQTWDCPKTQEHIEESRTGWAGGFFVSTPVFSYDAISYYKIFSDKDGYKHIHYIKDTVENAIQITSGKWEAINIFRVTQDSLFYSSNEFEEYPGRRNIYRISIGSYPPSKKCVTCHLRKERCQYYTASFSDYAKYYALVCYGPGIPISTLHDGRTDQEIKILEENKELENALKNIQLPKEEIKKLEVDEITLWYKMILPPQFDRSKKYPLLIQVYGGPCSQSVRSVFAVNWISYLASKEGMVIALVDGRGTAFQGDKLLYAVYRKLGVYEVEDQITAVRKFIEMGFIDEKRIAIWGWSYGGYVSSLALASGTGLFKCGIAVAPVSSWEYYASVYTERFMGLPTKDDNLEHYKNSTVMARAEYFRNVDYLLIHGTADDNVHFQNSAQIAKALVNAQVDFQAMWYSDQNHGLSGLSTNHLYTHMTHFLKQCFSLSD

[3] = molecular target: Recombinant human DPP4 (R&D systems, #9168-SE) (human)
[4] = molecular target: recombinant human PREP (R&D systems, #4308-SE) (human)
MAO-A = experiment: radioligand displacement, 10 uM compound
BZD (central) = experiment: radioligand displacement, 10 uM compound
NMDA = experiment: radioligand displacement, 10 uM compound
Na+ channel (site 2) = experiment: radioligand displacement, 10 uM compound
KV channel [5] = experiment: radioligand displacement, 10 uM compound
[6] = molecular target: Ca2+ channel (L, dihydropyridine site); experiment: radioligand displacement, 10 uM compound
[7] = molecular target: Acetylcholinesterase (h) (human (printed (h))) (UniProt P22303)
[8] = molecular target: PDE4D2 (h) (human (printed (h))) (UniProt Q08499)
[9] = molecular target: PDE3A (h) (human (printed (h))) (UniProt Q14432)
[10] = molecular target: COX1(h) (human (printed (h))) (UniProt P23219)
[11] = molecular target: T2, COX2(h) (human (printed (h))) (UniProt P35354)
T2 sequence: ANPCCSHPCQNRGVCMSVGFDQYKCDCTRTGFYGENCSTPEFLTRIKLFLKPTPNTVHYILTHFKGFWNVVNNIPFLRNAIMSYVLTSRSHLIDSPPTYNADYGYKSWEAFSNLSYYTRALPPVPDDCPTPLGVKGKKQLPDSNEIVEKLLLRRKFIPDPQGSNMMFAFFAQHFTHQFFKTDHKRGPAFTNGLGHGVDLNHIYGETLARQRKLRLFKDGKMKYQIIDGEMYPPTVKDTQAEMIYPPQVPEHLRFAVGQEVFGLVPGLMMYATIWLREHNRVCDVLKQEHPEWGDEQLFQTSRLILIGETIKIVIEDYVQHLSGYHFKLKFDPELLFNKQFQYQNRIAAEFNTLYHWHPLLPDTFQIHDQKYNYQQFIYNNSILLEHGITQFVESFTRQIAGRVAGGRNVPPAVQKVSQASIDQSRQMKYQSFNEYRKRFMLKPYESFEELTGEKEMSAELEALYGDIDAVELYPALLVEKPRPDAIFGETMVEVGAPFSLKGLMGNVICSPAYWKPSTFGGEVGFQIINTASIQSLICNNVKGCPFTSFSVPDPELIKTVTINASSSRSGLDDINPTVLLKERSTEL

[12] = molecular target: Lck kinase (h) (human (printed (h))) (UniProt P06239)
mu (MOP) (h) (human) = molecular target: mu (MOP) (h) (human (printed (h))) (UniProt P35372); experiment: radioligand displacement, reference compound of the panel
delta (DOP) (h) (human) = molecular target: delta (DOP) (h) (human (printed (h))) (UniProt P41143); experiment: as above
KV channel [13] = experiment: as above
[14] = molecular target: human fibroblast activation protein (FAP) on FAP-expressing human WI-38 fibroblasts (human); experiment: competition FACS, WI-38 cells, vs Cy5-labeled compound; A: pIC50 >8.0

COX1(h) (human (printed (h))), sequence (P23219 24-599 limits assumed): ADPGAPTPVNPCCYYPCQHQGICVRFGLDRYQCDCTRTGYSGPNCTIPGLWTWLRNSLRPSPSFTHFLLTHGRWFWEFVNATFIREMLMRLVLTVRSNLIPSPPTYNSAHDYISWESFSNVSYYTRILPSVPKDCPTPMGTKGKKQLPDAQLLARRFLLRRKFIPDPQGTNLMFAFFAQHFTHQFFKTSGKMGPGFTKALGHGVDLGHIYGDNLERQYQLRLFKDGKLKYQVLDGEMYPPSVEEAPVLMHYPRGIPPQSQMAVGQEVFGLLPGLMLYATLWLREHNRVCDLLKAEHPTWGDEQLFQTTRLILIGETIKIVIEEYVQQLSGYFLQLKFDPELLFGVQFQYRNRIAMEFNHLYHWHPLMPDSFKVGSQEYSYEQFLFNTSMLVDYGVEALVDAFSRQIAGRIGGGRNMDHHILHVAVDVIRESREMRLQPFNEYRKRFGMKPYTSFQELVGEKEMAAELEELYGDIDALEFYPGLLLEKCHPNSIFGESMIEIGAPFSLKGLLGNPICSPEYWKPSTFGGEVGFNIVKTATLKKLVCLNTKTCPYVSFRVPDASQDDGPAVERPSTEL
PDE4D2 (h) (human (printed (h))), sequence (Q08499 303-809): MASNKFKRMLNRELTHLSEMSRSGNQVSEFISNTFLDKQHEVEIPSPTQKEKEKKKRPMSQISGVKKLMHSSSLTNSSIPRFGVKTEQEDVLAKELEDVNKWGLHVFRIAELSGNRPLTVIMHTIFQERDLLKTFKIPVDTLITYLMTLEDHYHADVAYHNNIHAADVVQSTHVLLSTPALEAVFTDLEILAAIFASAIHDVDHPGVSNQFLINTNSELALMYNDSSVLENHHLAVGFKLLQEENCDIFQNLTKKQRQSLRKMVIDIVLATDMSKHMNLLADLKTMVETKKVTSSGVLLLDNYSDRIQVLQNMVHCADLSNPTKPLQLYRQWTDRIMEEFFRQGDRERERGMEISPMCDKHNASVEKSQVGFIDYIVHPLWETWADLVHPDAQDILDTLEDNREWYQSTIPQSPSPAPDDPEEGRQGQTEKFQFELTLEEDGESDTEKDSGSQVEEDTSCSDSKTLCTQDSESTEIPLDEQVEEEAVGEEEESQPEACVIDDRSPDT

Hex-[Cys(3MeBn)-Pro-Pro-Thr-Glu-Nphe-Cys]-NH2 (peptide)
pIC50 Category (FACS) [1]: < 6 pIC50 | pIC50 Category (Activity) [2]: < 6 pIC50

DOTA-Ttds-Nle-[Cys(3MeBn)-Pro-Pro-Thr-Glu-Phe-Cys]-Asp-His-Phe-Arg-Asp-NH2 (3BP-3168) (peptide)
pIC50 (DPP4) [3]: < 6 pIC50 | pIC50 (PREP) [4]: < 6 pIC50

Hex-[Cys(3MeBn)-Pro-Pro-Thr-Glu-Phe-Cys]-Asp-His-Nmf-Arg-Ttds-Lys(DOTA)-NH2 (3BP-3275) (peptide)
pIC50 (DPP4) [3]: < 6 pIC50 | pIC50 (PREP) [4]: < 6 pIC50

H-Met-[Cys(3MeBn)-Pro-Pro-Thr-Glu-Phe-Cys]-Asp-His-Phe-Arg-Asp-Ttds-Lys(Bio)-NH2 (3BP-2881) (peptide)
pIC50 (DPP4) [3]: < 6 pIC50 | pIC50 (PREP) [4]: < 6 pIC50

DOTA-Ttds-Nle-[Cys(3MeBn)-Pro-Pro-Thr-Glu-Phe-Cys]-NH2 (3BP-3319) (peptide)
pIC50 (DPP4) [3]: < 6 pIC50 | pIC50 (PREP) [4]: 6.2 pIC50

Hex-[Cys(tMeBn(DOTA-AET))-Pro-Pro-Thr-Gln-Phe-Cys]-OH (3BP-3554) (peptide)
% Inhibition of Specific Binding (MAO-A): -25% | % Inhibition of Specific Binding (BZD (central)): 5% | % Inhibition of Specific Binding (NMDA): 1% | % Inhibition of Specific Binding (Na+ channel (site 2)): 14% | % Inhibition of Specific Binding (KV channel [5]): 4% | % Inhibition of Specific Binding [6]: 54% | % inhibition of control enzyme activity [7]: 1% | % inhibition of control enzyme activity [8]: -4% | % inhibition of control enzyme activity [9]: -37% | % inhibition of control enzyme activity [10]: 8% | % inhibition of control enzyme activity [11]: -22% | % inhibition of control enzyme activity [12]: -4%

Hex-[Cys(3MeBn)-Pro-4Dfp-Thr-Glu-Phe-Cys]-NH2 (peptide)
pIC50 Category (FACS) [1]: < 6 pIC50

Hex-[Cys(3MeBn)-Pro-Pro-Thr-Glu-Nmf-Cys]-NH2 (peptide)
pIC50 Category (FACS) [1]: < 6 pIC50

Hex-[Cys(tMeBn(DOTA-PP))-Pro-Pro-Thr-Gln-Phe-Cys]-Asp-NH2 (3BP-3407) (peptide)
pIC50 (DPP4) [3]: < 6 pIC50 | pIC50 (PREP) [4]: < 6 pIC50 | % Inhibition of Specific Binding (MAO-A): -5% | % Inhibition of Specific Binding (BZD (central)): -9% | % Inhibition of Specific Binding (NMDA): 9% | % Inhibition of Specific Binding (Na+ channel (site 2)): -7% | % Inhibition of Specific Binding (KV channel [5]): -5% | % Inhibition of Specific Binding [6]: 42% | % inhibition of control enzyme activity [7]: -6% | % inhibition of control enzyme activity [8]: -5% | % inhibition of control enzyme activity [9]: -3% | % inhibition of control enzyme activity [10]: 10% | % inhibition of control enzyme activity [11]: -14% | % inhibition of control enzyme activity [12]: 10%

Hex-[Cys(3MeBn)-Pro-Pro-Thr-Glu-Phe-Pen]-NH2 (peptide)
pIC50 Category (FACS) [1]: < 6 pIC50

Hex-[Cys(3MeBn)-Pro-Pro-Thr-Gln-Phe-Cys]-Bhk(DOTA)-OH (3BP-3397) (peptide)
pIC50 (DPP4) [3]: < 6 pIC50 | pIC50 (PREP) [4]: < 6 pIC50

DOTA-Ttds-Hci-[Cys(3MeBn)-Pro-Pro-Thr-Gln-Phe-Cys]-Bal-OH (peptide)
pIC50 Category (FACS) [1]: < 6 pIC50 | pIC50 Category (Activity) [2]: < 6 pIC50

Hex-[Cys(3MeBn)-Pro-Pro-Thr-Moo-Phe-Cys]-NH2 (peptide)
pIC50 Category (FACS) [1]: < 6 pIC50 | pIC50 Category (Activity) [2]: < 6 pIC50

Hex-[Cys(3MeBn)-Pro-Pro-Thr-Glu-Tic-Cys]-NH2 (peptide)
pIC50 Category (FACS) [1]: < 6 pIC50

Hex-[Cys(3MeBn)-Pro-Tap-Thr-Glu-Phe-Cys]-NH2 (peptide)
pIC50 Category (FACS) [1]: < 6 pIC50

Hex-[Cys(3MeBn)-Pro-Pro-Thr-Glu-Phe-Cys]-Asp-His-Phe-Arg-Asp-Ttds-Lys(DOTA)-NH2 (3BP-3105) (peptide)
pIC50 (DPP4) [3]: < 6 pIC50 | pIC50 (PREP) [4]: < 6 pIC50

DOTA-Ttds-Nle-[Cys(3MeBn)-Pro-Pro-Thr-Glu-Phe-Cys]-Asp-Pamb-Arg-NH2 (3BP-3321) (peptide)
pIC50 (DPP4) [3]: < 6 pIC50 | pIC50 (PREP) [4]: < 6 pIC50

DAMGO (peptide)
Ki (mu (MOP) (h) (human)): 0.37 nM

Hex-[Cys(3MeBn)-Pro-Eay-Thr-Glu-Phe-Cys]-NH2 (peptide)
pIC50 Category (FACS) [1]: < 6 pIC50

DPDPE (peptide)
Ki (delta (DOP) (h) (human)): 1.2 nM

DOTA-Ttds-Hgl-[Cys(3MeBn)-Pro-Pro-Thr-Gln-Phe-Cys]-Bal-OH (peptide)
pIC50 Category (FACS) [1]: < 6 pIC50

Hex-[Cys(3MeBn)-Pro-Pro-Opc-Glu-Phe-Cys]-NH2 (peptide)
pIC50 Category (FACS) [1]: < 6 pIC50

DOTA-Ttds-Nle-[Cys(3MeBn)-Pro-Pro-Thr-Gln-Phe-Cys]-Bal-OH (3BP-3398) (peptide)
pIC50 (DPP4) [3]: < 6 pIC50 | pIC50 (PREP) [4]: < 6 pIC50

Hex-[Cys(3MeBn)-Pro-Pro-Orn(Ac)-Glu-Phe-Cys]-NH2 (peptide)
pIC50 Category (FACS) [1]: < 6 pIC50

alpha-dendrotoxin (from UniProt P00980) (peptide)
Ki (KV channel [13]): 0.097 nM

[3MeBn-Spa-Pro-Pro-Thr-Gln-Phe-Cys]-Asp-NH2 (3BP-3419) (peptide)
pIC50 (DPP4) [3]: < 6 pIC50 | pIC50 (PREP) [4]: < 6 pIC50

DOTA-Ttds-Nle-[Cys(3MeBn)-Pro-Pro-Thr-Glu-Phe-Cys]-Asp-NH2 (3BP-3320) (peptide)
pIC50 (DPP4) [3]: < 6 pIC50 | pIC50 (PREP) [4]: < 6 pIC50

Ac-Met-[Cys(3MeBn)-Pro-Pro-Thr-Glu-Phe-Cys]-Asp-His-Phe-Arg-Asp-NH2 (peptide)
pIC50 Category (FACS) [14]: > 8 pIC50 | pIC50 Category (Activity) [2]: > 8 pIC50

Hex-[Cys(3MeBn)-Pro-Pro-Thr-Glu-Bip-Cys]-NH2 (peptide)
pIC50 Category (FACS) [1]: < 6 pIC50 | pIC50 Category (Activity) [2]: < 6 pIC50

Hex-[Cys(3MeBn)-Pro-Pro-Thr-Nme-Phe-Cys]-NH2 (peptide)
pIC50 Category (FACS) [1]: < 6 pIC50 | pIC50 Category (Activity) [2]: < 6 pIC50

DOTA-Ttds-Met-[Cys(3MeBn)-Pro-Pro-Thr-Glu-Phe-Cys]-Asp-His-Phe-Arg-Asp-NH2 (peptide)
pIC50 Category (FACS) [14]: > 8 pIC50 | pIC50 Category (Activity) [2]: > 8 pIC50

DOTA-Ttds-Nle-[Cys(3MeBn)-Pro-Pro-Thr-Gln-Phe-Cys]-Asp-NH2 (peptide)
pIC50 Category (FACS) [14]: > 8 pIC50 | pIC50 Category (Activity) [2]: > 8 pIC50
